In patent US20150175992A1:

Key:
Test in all cases: cell-based or functional assay
[1] = biological target: Bacillus subtilis XynA variant G13Y/K99Y/T104W/T110A/Y113D/R122F/K154R/N159D/Y166F/Q175L (Bacillus subtilis) (UniProt P18429)
[2] = biological target: Bacillus subtilis XynA variant G13Y/I77S/K99Y/T104W/T110A/Y113D/R122F/K154R/N159D/Q175L (Bacillus subtilis) (UniProt P18429)
[3] = biological target: Bacillus subtilis XynA variant G13Y/I77Y/K99Y/T104W/T110A/Y113D/R122F/K154R/N159D/Q175L (Bacillus subtilis) (UniProt P18429)
[4] = biological target: Bacillus subtilis XynA variant G13Y/T110A/Y113D/R122D/K154R/N159D/Q175L (Bacillus subtilis) (UniProt P18429)
[5] = biological target: Bacillus subtilis xylanase variant BS3 (wildtype with D11F/R122D mutations) (Bacillus subtilis) (UniProt P18429)
[6] = biological target: Bacillus subtilis XynA variant G13Y/K99Y/T104W/T110A/Y113D/I118V/R122F/K154R/N159D/Q175L (Bacillus subtilis) (UniProt P18429)
[7] = biological target: Bacillus subtilis XynA variant G13Y/T110A/Y113D/R122D/Q175L (Bacillus subtilis) (UniProt P18429)
[8] = biological target: Bacillus subtilis XynA variant G13Y/K99Y/T104W/T110A/Y113D/N114D/R122F/K154R/N159D/Q175K (Bacillus subtilis) (UniProt P18429)
[9] = biological target: Bacillus subtilis XynA variant G13Y/K99Y/T104W/T110A/Y113D/N114Y/R122F/K154R/N159D/Q175L (Bacillus subtilis) (UniProt P18429)
[10] = biological target: Bacillus subtilis XynA variant G13Y/K99Y/T104W/T110A/Y113D/N114F/R122F/K154R/N159D/Q175L (Bacillus subtilis) (UniProt P18429)
[11] = biological target: Bacillus subtilis XynA variant G13Y/T110A/Y113D/R122F/Q175L (Bacillus subtilis) (UniProt P18429)
[12] = biological target: Bacillus subtilis XynA variant D11F/R122D/T110A/Y113A (Bacillus subtilis) (UniProt P18429)
[13] = biological target: Bacillus subtilis XynA variant G13Y/I77M/K99Y/T104W/T110A/Y113D/R122F/K154R/N159D/Q175L (Bacillus subtilis) (UniProt P18429)
[14] = biological target: Bacillus subtilis XynA variant G13Y/K99Y/T104W/T110A/Y113D/R122F/K154R/N159D/Q175/V81I (Bacillus subtilis) (UniProt P18429)
[15] = biological target: Bacillus subtilis XynA wildtype xylanase (SEQ ID No. 1) (Bacillus subtilis) (UniProt P18429)
[16] = biological target: Bacillus subtilis XynA variant G13Y/T110A/Y113D/R122D/W164F/Q175L (Bacillus subtilis) (UniProt P18429)
[17] = biological target: Bacillus subtilis XynA variant G13Y/G34K/T110A/Y113D/R122D/Q175L (Bacillus subtilis) (UniProt P18429)
[18] = biological target: Bacillus subtilis XynA variant G13Y/I77L/K99Y/T104W/T110A/Y113D/R122F/K154R/N159D/Q175L (Bacillus subtilis) (UniProt P18429)
[19] = biological target: Bacillus subtilis XynA variant G13Y/K99Y/T104W/T110A/Y113D/R122F/K154R/N159D/Q175K (Bacillus subtilis) (UniProt P18429)
[20] = biological target: Bacillus subtilis XynA variant G13Y/K99Y/T104W/T110A/Y113D/R122F/K154R/N159D/Q175L (Bacillus subtilis) (UniProt P18429)
[21] = biological target: Bacillus subtilis XynA variant G13Y/K99Y/T104W/T110A/Y113D/N114Y/R122F/K154R/N159D/Q175K (Bacillus subtilis) (UniProt P18429)
[22] = biological target: Bacillus subtilis XynA variant D11F/R122D/T110A (Bacillus subtilis) (UniProt P18429)
[23] = biological target: Bacillus subtilis XynA variant G13Y/T110A/Y113D/R122D/S162D/Q175L (Bacillus subtilis) (UniProt P18429)
[24] = biological target: Bacillus subtilis XynA variant G13Y/I77V/K99Y/T104W/T110A/Y113D/R122F/K154R/N159D/Q175L (Bacillus subtilis) (UniProt P18429)
[25] = biological target: Bacillus subtilis XynA variant G13Y/K99Y/T104W/T110A/Y113D/N114D/R122F/K154R/N159D/Q175L (Bacillus subtilis) (UniProt P18429)
[26] = biological target: Bacillus subtilis XynA variant G13Y/T110A/Y113D/R122D/S162E/Q175L (Bacillus subtilis) (UniProt P18429)

Substance: crude inhibitor preparation (containing both TAXI and XIP) from wheat (Triticum aestivum) flour
- % Activity @ 50 XIU/ml (residual xylanase activity) [1]: 68%
- % Activity @ 50 XIU/ml (residual xylanase activity) [2]: 20%
- % Activity @ 50 XIU/ml (residual xylanase activity) [3]: 37%
- % Activity @ 50 XIU/ml (residual xylanase activity) [4]: 32%
- % Activity @ 5.6 XIU/ml (residual xylanase activity) [5]: 100%
- % Activity @ 33.5 XIU/ml (residual xylanase activity) [5]: 100%
- % Activity @ 50 XIU/ml (residual xylanase activity) [5]: 95%
- % Activity @ 50 XIU/ml (residual xylanase activity) [6]: 79%
- % Activity @ 33.5 XIU/ml (residual xylanase activity) [7]: 50%
- % Activity @ 50 XIU/ml (residual xylanase activity) [8]: 79%
- % Activity @ 50 XIU/ml (residual xylanase activity) [9]: 78%
- % Activity @ 50 XIU/ml (residual xylanase activity) [10]: 79%
- % Activity @ 50 XIU/ml (residual xylanase activity) [11]: 65%
- % Activity @ 5.6 XIU/ml (residual xylanase activity) [12]: 99%
- % Activity @ 50 XIU/ml (residual xylanase activity) [13]: 46%
- % Activity @ 50 XIU/ml (residual xylanase activity) [14]: 46%
- % Activity @ 5.6 XIU/ml (residual xylanase activity) [15]: 29%
- % Activity @ 50 XIU/ml (residual xylanase activity) [16]: 29%
- % Activity @ 50 XIU/ml (residual xylanase activity) [17]: 97%
- % Activity @ 50 XIU/ml (residual xylanase activity) [18]: 75%
- % Activity @ 50 XIU/ml (residual xylanase activity) [19]: 72%
- % Activity @ 50 XIU/ml (residual xylanase activity) [20]: 64%
- % Activity @ 50 XIU/ml (residual xylanase activity) [21]: 84%
- % Activity @ 5.6 XIU/ml (residual xylanase activity) [22]: 98%
- % Activity @ 33.5 XIU/ml (residual xylanase activity) [22]: 100%
- % Activity @ 50 XIU/ml (residual xylanase activity) [23]: 40%
- % Activity @ 50 XIU/ml (residual xylanase activity) [24]: 45%
- % Activity @ 50 XIU/ml (residual xylanase activity) [25]: 79%
- % Activity @ 50 XIU/ml (residual xylanase activity) [26]: 44%
